The numbers were not newly measured in paper PMC8667759, which cites them from elsewhere.

The target of one series is Piezo1 (UniProt E2JF22).
The target in the next series is Cav3 (UniProt O43497).
UniProt O43497, sequence (O43497 whole entry): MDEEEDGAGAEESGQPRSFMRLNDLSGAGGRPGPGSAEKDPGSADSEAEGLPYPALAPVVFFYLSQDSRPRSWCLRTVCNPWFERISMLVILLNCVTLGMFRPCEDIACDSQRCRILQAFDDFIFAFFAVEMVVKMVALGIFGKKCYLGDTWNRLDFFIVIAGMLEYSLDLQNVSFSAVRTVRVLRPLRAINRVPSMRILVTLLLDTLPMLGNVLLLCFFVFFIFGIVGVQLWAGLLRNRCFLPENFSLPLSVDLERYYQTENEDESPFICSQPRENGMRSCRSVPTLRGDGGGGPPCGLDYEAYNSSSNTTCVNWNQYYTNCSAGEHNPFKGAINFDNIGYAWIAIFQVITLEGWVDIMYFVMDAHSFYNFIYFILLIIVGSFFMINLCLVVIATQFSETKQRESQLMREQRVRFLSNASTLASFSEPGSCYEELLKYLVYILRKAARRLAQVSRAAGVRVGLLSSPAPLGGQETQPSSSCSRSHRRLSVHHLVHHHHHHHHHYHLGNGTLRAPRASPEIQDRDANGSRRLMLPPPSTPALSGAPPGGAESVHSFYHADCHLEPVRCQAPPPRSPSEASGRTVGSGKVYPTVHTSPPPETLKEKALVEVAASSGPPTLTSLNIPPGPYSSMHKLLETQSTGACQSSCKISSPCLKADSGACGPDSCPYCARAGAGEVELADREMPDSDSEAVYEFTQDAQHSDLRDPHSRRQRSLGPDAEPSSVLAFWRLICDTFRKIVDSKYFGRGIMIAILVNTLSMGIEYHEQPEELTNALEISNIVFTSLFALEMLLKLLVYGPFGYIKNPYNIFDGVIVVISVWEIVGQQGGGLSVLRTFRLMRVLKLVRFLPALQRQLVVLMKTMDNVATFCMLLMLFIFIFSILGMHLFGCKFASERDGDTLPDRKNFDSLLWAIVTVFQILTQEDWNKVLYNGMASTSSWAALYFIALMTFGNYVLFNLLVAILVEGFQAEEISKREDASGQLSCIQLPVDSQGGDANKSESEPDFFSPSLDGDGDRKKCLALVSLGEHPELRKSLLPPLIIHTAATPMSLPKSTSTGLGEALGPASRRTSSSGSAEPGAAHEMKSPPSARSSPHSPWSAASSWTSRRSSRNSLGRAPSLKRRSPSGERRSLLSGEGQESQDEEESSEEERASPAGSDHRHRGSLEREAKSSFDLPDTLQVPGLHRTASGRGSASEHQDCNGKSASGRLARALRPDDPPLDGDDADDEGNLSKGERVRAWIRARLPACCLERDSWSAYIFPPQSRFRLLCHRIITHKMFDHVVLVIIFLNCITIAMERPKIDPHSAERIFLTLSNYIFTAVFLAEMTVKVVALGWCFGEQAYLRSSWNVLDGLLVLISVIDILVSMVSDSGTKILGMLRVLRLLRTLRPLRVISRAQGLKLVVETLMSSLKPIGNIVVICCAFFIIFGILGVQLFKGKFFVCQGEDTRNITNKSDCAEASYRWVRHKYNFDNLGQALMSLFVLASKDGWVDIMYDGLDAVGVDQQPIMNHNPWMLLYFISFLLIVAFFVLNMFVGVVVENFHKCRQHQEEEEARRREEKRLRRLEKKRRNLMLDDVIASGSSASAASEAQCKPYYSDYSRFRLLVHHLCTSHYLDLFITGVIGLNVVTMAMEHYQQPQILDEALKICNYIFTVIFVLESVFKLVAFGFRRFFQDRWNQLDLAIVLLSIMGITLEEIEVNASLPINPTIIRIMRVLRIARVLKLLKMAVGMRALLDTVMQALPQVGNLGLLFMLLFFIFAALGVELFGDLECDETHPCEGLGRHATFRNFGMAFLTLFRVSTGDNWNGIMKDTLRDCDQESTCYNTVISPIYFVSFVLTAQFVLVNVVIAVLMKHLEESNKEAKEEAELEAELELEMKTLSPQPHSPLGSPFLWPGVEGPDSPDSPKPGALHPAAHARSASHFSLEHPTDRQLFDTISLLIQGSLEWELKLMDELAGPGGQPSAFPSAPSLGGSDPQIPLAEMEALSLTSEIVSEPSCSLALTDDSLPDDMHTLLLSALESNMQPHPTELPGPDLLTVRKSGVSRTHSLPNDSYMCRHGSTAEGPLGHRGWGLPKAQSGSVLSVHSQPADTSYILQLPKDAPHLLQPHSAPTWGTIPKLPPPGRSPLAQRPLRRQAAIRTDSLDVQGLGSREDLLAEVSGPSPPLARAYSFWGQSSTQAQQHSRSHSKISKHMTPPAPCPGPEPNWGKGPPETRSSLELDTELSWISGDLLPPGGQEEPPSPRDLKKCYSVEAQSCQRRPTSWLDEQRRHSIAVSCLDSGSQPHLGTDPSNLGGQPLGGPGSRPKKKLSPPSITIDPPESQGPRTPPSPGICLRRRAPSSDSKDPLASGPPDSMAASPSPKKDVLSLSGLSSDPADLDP

UniProt E2JF22, sequence (E2JF22 whole entry): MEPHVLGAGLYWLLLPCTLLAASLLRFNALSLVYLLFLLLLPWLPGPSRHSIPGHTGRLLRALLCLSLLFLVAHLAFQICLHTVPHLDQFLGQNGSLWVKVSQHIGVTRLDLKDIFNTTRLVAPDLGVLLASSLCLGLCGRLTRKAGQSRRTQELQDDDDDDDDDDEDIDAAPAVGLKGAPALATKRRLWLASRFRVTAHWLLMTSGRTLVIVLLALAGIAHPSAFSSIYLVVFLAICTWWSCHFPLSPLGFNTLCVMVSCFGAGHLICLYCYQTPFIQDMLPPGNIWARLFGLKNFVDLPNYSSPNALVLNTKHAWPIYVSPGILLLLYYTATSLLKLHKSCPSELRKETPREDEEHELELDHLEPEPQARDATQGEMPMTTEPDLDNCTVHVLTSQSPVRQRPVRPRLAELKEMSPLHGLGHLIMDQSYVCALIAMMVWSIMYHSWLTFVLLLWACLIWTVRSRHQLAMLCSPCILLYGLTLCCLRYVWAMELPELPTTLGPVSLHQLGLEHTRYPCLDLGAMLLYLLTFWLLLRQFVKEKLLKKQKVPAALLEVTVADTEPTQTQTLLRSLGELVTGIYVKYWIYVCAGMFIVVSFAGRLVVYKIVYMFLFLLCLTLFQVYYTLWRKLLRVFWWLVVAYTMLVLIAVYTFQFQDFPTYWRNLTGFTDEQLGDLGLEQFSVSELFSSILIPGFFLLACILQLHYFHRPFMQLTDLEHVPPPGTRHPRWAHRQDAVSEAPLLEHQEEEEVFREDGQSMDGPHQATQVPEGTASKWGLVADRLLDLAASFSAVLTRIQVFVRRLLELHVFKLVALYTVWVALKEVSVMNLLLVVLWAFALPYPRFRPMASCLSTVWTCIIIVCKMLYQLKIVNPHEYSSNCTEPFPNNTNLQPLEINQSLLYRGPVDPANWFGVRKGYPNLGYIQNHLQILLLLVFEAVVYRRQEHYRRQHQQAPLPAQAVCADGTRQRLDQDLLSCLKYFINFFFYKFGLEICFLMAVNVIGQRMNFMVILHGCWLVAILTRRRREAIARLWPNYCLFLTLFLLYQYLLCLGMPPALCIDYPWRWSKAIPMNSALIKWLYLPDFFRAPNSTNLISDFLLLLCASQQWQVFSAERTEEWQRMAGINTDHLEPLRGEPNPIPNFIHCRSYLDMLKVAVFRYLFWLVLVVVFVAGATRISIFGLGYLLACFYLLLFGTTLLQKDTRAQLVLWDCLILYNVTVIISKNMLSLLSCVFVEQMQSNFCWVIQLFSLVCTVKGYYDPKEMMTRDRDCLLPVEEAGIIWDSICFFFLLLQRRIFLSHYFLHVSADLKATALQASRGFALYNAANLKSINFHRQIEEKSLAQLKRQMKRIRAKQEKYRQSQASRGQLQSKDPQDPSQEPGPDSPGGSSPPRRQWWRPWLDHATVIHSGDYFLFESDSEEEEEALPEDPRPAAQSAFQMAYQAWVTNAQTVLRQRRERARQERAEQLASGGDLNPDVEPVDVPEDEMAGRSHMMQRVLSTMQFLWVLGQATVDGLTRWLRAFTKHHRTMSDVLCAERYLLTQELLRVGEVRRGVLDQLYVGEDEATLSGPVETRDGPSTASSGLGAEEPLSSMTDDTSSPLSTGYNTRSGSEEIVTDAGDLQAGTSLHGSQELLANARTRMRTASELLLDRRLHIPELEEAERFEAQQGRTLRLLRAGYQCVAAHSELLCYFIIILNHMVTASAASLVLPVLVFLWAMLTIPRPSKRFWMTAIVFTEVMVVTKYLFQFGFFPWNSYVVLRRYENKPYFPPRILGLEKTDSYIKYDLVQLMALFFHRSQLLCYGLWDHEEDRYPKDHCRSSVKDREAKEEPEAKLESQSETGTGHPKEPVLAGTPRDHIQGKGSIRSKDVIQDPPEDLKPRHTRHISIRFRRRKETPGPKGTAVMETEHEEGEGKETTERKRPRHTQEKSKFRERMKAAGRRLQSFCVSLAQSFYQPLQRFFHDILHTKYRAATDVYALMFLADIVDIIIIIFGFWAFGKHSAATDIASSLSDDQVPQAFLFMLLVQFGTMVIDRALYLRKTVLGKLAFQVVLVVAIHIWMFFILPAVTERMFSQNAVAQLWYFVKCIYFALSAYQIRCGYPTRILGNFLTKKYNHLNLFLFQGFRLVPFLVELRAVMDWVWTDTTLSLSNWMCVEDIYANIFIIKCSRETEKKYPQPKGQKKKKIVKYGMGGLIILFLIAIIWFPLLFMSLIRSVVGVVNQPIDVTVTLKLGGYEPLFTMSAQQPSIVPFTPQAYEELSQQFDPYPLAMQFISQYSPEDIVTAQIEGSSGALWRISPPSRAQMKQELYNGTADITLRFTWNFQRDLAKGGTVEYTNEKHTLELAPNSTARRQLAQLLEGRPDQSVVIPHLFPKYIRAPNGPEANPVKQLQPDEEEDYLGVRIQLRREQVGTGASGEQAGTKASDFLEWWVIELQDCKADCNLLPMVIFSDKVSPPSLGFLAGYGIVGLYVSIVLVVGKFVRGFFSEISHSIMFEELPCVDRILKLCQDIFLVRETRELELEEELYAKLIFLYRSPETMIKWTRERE

In general, Kd refers to the concentration at which binding is half-saturated. With GsMTx4 (from UniProt Q7YT39), the Kd with Piezo1 was 155 nM.
As for Kurtoxin (from UniProt P58910), in the series with Cav3, the Kd was 15 nM.
